This is an account of results in the supplement of paper PMC12042874.

± gives the uncertainty stated by the source.

The data set can be described thus: amyloid nucleation score (Sup35N fusion, yeast selection) (log enrichment); library NNK2; higher = more nucleation; inactive = no reads after selection. In a few lines:
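After 24 hours of induction with 100 μM copper sulfate, psi-negative yeast expressing peptides of 20 random codons fused to Sup35N were grown for 7 days at 30°C on medium lacking adenine and uracil. Input and output plasmid inserts were sequenced with Illumina, and sequences with under 100 input reads were discarded. Scores for nucleation are the DiMSum log enrichment of output over input reads, centred on the mode score of non-aggregating sequences.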
For RCSSRPCDLCVTEWIRRMEG, the amyloid nucleation score came out at 0.357 ± 0.45.

In the case of VAFIYCIV, the amyloid nucleation score stood at 4.99 ± 0.068. Then TLNRTW, with 0.166 ± 0.16. The substance NELFWFNMSFSCPKWGICNL showed an amyloid nucleation score of 4.17 ± 0.043. In the case of VLFGLKYFGSAGIQMSTCDK, the amyloid nucleation score worked out at 3.53 ± 0.066. The value for SLLYRD was -0.817 ± 0.48. Then NRACFGYEDKLRAMLHLYRS, with 0.201 ± 0.45; and SVCSSRGDAMSGVLPCAGGL, with 0.124 ± 0.55; and LPGSRHNSRMSLRTQVVKVL, with “inactive”. Then SLSNCSTWTSF, with 0.02 ± 1. Regarding MSTIITALEFNG, the amyloid nucleation score worked out at 0.188 ± 0.62. In turn, NRTGEYLYRRWVQSGSGGKG had an amyloid nucleation score of 0.553 ± 0.65. Then VGILSRWLRGRFTVTRWLWC, with -0.945 ± 1.1.

MSNDRDVVKVWFFPYDPHQS: the amyloid nucleation score is -0.378 ± 0.26. The value for LRGYCLRWRHWTVSILEFGV was -1.02 ± 0.76; that for WTDTGMTYLFCNLFWLACGI was 5.634 ± 0.03; that for VMLNWDMGDFRA was “inactive”. Then VWRWSKRNATYIGAGIWSGR, with 1.42 ± 0.21; and LSVCLAKPTCDVSF, with 0.201 ± 0.33; and KYRTYPGVGIIGRVDSSLRT, with 0.741 ± 0.51. QRDCSYEYLTTKLTAELRGS had an amyloid nucleation score of 0.216 ± 0.55.

NSYILKDFNCEPGVNMDWQN: the amyloid nucleation score entry was “inactive”. Regarding GGFDYCFIMYHRNELDSGLG, the amyloid nucleation score is -0.646 ± 0.23. Then KAKYTTILCCIDRCGCIGQY, with 8.613 ± 0.046. For the substance RCGFNLFTS, the amyloid nucleation score was -0.883 ± 0.76. The value for LVVNASLRWIRHWSKGF was 4.515 ± 0.035; that for FRVGLLVGISMVDFTLGVNA was 0.416 ± 0.8; that for IFVNILNWLSVVRSSGFGSV was “inactive”. Substance LNGGKLWNHRDLWDRTGQVY came in with an amyloid nucleation score of -0.266 ± 1. YVVVLNWNSHCSKYYELRQE: the amyloid nucleation score worked out at 8.402 ± 0.05.

DTWTYVAWFLYIIICSRQTE gave an amyloid nucleation score of -0.623 ± 0.35.

FNINSPTALSYFMVLEVPLV came in with an amyloid nucleation score of 2.42 ± 0.12. Then DWTDCYWMLRDTGGFSIS, with -1.35 ± 0.78; and SVFAKGISAVLLGACLRIAA, with 1.03 ± 0.25. Then VWDRITLFCSLLIRVHGLCT, with 0.269 ± 0.29; and MFILGVRPMISKSHNVPTQR, with -0.171 ± 0.42. For KDLPFGTYGNGGAGSRTMRH, the amyloid nucleation score amounted to 0.19 ± 0.27. Take SGLVVMRLLFLRGY: the amyloid nucleation score is -0.558 ± 0.54. On to SVDSLWQYQSFRALFPCFMS, for which the amyloid nucleation score result is “inactive”. FPLRLLWSGGALCATPPIRV displayed an amyloid nucleation score of 0.655 ± 0.47. Then TVIRNLVICSFEYCRDMITR, with 8.195 ± 0.075; and AFIYYFNLTSAHYFPMRQMF, with “inactive”; and RTVRTAAMLTCGW, with 0.855 ± 0.48. The value for CSRGP was 0.534 ± 0.64. FMVQSVFTKLGPSQAFRVHP came in with an amyloid nucleation score of -0.14 ± 1.

As to NSVCYGP, the amyloid nucleation score is 0.899 ± 0.47. FRYLYVLYGFYMVVTWYLRV registered an amyloid nucleation score of -0.088 ± 0.63. In the case of YCCCVSMFVRTLIARDYNLN, the amyloid nucleation score was 8.154 ± 0.078. GMGSSRGQRSTYYYGDLAYA had an amyloid nucleation score of 0.96 ± 0.21.

For MQTCYSDQMDFVYEAYYCTW, the amyloid nucleation score came to 1.7 ± 0.1.

VAFKRLGNMSSGTFSWAMLN came in with an amyloid nucleation score of 0.894 ± 0.74. Then PVRLPSMWNVDRAFWPDYCQ, with “inactive”. LFGVYMLQVCVKNSKLSRSE gave an amyloid nucleation score of -0.133 ± 1. The substance ICISGAFNVTAHLKLAQASL returned an amyloid nucleation score of 0.295 ± 1. LSYTSDSRPAGF showed an amyloid nucleation score of -0.347 ± 1.1. Then CSINLRAYPVLSRGATVACK, with 0.755 ± 0.55; and GTAYAHFFEVNFTSKLLAEF, with 1.76 ± 0.18. With SPGRLFATEFVVVYVKYHSP, the amyloid nucleation score was -0.121 ± 0.37.

VLWTIKGFPC came in with an amyloid nucleation score of 1.63 ± 0.11.

As for WFPLGQHEKAEILSLMIVDR, the amyloid nucleation score is -0.154 ± 0.49.

As for FFYFTMWNKHFEFVYNSSPC, the amyloid nucleation score is -0.613 ± 0.64. Regarding RMSRVEWIPHVDFYPTHGLI, the amyloid nucleation score was -0.439 ± 0.63. The value for IFSEGSTSSGSFGTKL was -1.6 ± 0.61; that for DNVKVWSGFTRY was -0.148 ± 0.49. The value for WVSSQAEWGVLCGICRSLES was “inactive”; that for FSIISGCFRNVVDLLRMLNL was -1.2 ± 1.1. The value for FSLFWWMSHITREWISCMCM was -0.895 ± 1.1; that for CFSRIFICN was -0.075 ± 0.49; that for DCMTMINLICNGMPAICRMT was 0.445 ± 0.18.

On to INLNNFLVLLLCKHRVVWKQ, for which the amyloid nucleation score was found to be 1.48 ± 0.2. Then GRWSRF, with 0.446 ± 0.64. The value for FIGCKEHNILNSMKRVD was -0.594 ± 1.1; that for LIRPSLPSS was 0.807 ± 0.28; that for GVSWTFFGEYFQPCSSMKVN was -0.538 ± 0.46. On to DGCLARGYNKGVHDGVVEYL, for which the amyloid nucleation score was -0.088 ± 1.1. In turn, FQCDVSCSVYKSWEMFQGIT yielded an amyloid nucleation score of 0.164 ± 0.8. The substance VFGWSVRFNYYIFMSMANDV yielded an amyloid nucleation score of 3.62 ± 0.13. Then IAACLFYNRSVNIFTGVDGL, with 4.09 ± 0.14; and RVSDRHV, with 1.42 ± 0.099; and TRVDDLIR, with -0.191 ± 0.32. The value for LYYGNPEKIPADGLSSHIMQ was 3.7 ± 0.063; that for NCGLCGILHHL was 8.14 ± 0.072. Then FLFRKYWLTNRWLFMFKEFA, with 0.196 ± 0.65; and INVFGGHLMSYMKSISRVVC, with -1.13 ± 0.64; and GYINEYCCHLRVNGLLRAPG, with -0.315 ± 0.5. For TGRWCVVGHRKSS, the amyloid nucleation score was -0.056 ± 0.34.

For TYATNSRRNRNVYLRPHCQI, the amyloid nucleation score came out at 0.117 ± 0.3. Substance KYCCWLRCGLIYNWGGNQDV yielded an amyloid nucleation score of 5.14 ± 0.064.

As to YHGVLSFLII, the amyloid nucleation score was 1.29 ± 0.36.

On to SNITDWVTTKVRMEKRPVVQ, for which the amyloid nucleation score result is “inactive”.

Consider RFILMNLAIVVDFVGS, for which the amyloid nucleation score worked out at 6.92 ± 0.078. Then ITDGLYLTWGFDP, with 0.931 ± 0.74. Then RYISPSQSAQVSGHLRNVQL, with 0.689 ± 0.62; and RTGRDFLSSIFFTSK, with -1.8 ± 0.41; and SPLHRDCGNQLTE, with 0.814 ± 0.17.

VLFRELRSTTASRTGDGDMM displayed an amyloid nucleation score of 4.61 ± 0.057.

HNYIWARTRSRGRPMYSVPA showed an amyloid nucleation score of 0.798 ± 0.33. The value for KATSCFLDWCGCPWHLMALD was 0.496 ± 0.29; that for ITSFKWVLKGSWCKGRESKF was 4.87 ± 0.068; that for LSNWHHFSQSRDFDKSLWVS was -0.386 ± 0.42. Then KTIQVGQVA, with 1.24 ± 0.29. The value for MCLMYANWERFDQKNGLR was 4.12 ± 0.12. AHIREMNVSGGCWLVQWVSK registered an amyloid nucleation score of 9.497 ± 0.038. The substance DAFWLWSFIWACVLCFTKHR had an amyloid nucleation score of -0.549 ± 0.45. For the substance VFFVHSYND, the amyloid nucleation score result is “inactive”.

As to SKGYYTLKVTYWTFR, the amyloid nucleation score was -0.745 ± 0.44.

Substance AMRFLALAWWTPGFSIGELM came in with an amyloid nucleation score of 4.846 ± 0.035. QSVQFRWRLCLAGFVGTGWR had an amyloid nucleation score of 3.06 ± 0.089. The value for CALGDATFNVWYMLS was 4.14 ± 0.05. The value for CNVHWGRL was 0.089 ± 0.8; that for RFSLSMDLLNPYST was 4.15 ± 0.13; that for CSMKYGCRVYVRNPSLSECD was 0.547 ± 0.45. MRMGMLKMTFFGCSPDLKRL registered an amyloid nucleation score of -0.277 ± 0.38. The value for LPLLSWDPRNTSP was -0.218 ± 0.53; that for HSMQSVPKWKL was 1.86 ± 0.25; that for VLYRLKVKAQWSLS was 0.878 ± 0.28.

In the case of LDPSVLMLWLFYRVQSLHVS, the amyloid nucleation score is 0.008 ± 0.35. In the case of FLVENCC, the amyloid nucleation score was -0.39 ± 0.64. The value for DSGNDLCDNYPVCWVKFCYC was 5.2 ± 0.063; that for VLFCL was -0.806 ± 0.48. Then GVVPQGMMTI, with -0.701 ± 0.55; and HYITKFSYDLGRKAKALVLS, with -0.626 ± 0.54; and FVECILASLWTRFEKIRMAC, with -0.108 ± 1.1. The value for PIRLQIWVWPVPKR was 0.8 ± 0.55; that for FKSVSRSVALLRYPCLPKFS was -0.47 ± 0.74; that for TMGGSGDGRY was “inactive”. For the substance YKNVFHNCILADSSVYWNTH, the amyloid nucleation score worked out at 5.764 ± 0.044. Consider ITIFTSWPVIMLETVMCYCN, for which the amyloid nucleation score was 5.32 ± 0.079. Then AGILLYHPQNMHDSPLQMTR, with 3.71 ± 0.099; and DKSIR, with 0.239 ± 0.33. Then GYINWSCDRDMFSRTTDFLG, with -0.592 ± 0.34; and ENVFDCNRFY, with “inactive”. Substance VDRKWRKT showed an amyloid nucleation score of -0.373 ± 1. For the substance YLQLRMLTVMGCLRLCTSMP, the amyloid nucleation score was found to be 0.386 ± 0.34. Then STSIAVANHWVSYFFVSSGL, with 8.998 ± 0.038; and VCDGV, with -0.582 ± 0.44; and TRVLYPACVCHGRSISFGVE, with 0.134 ± 0.44.

As for IMEYAPLYFIMF, the amyloid nucleation score stood at 4.16 ± 0.069. TLYQCEEDMSGYDNVNDLAY came in with an amyloid nucleation score of -0.331 ± 0.27.
